Columns and labels:
Recombinant human HER2 [1] = biological target: T1, Recombinant human HER2 (human, UniProt P04626 23-652); test: SPR, 25 C; Ka ratio to WT v10013;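 further: constructs captured via anti-human Fc on CM5 chip, HER2 ECD as analyte in duplicate dilutions, sensorgrams globally fit to 1:1 Langmuir model on Biacore T200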
T1 construct: extracellular domain; Analyte of the SPR assays; also called HER2 ECD; ECD2 of HER2
Protocol: (§1) The affinity towards HER2 ECD of the samples was measured by SPR on a Biacore T200 as follows. Between 2000 and 4000 RU of anti-human Fc injected at concentration between 5 and 10 μg/ml was immobilized on a CM5 chip using standard amine coupling. Antigen-binding constructs were captured on the anti-human Fc (injected at concentration at 0.51 microg/mL in PBST, 1 min at 10 microl/min) at response levels ranging from 120-270 RU. […] HER2 dilutions were analyzed in duplicates. Sensograms were fit globally to a 1: 1 Langmuir binding model, using the software provided with the Biacore T200. All experiments were conducted at 25° C.

Recombinant human HER2 [2] = biological target: T1, Recombinant human HER2; test: calculated from the SPR Ka ratio to WT v10013;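 further: SPR at 25 °C with constructs captured on an anti-human Fc chip and HER2 extracellular domain as analyte, kinetics fitted to a 1:1 Langmuir model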
Protocol: as §1

Recombinant human HER2 [3] = biological target: T1, Recombinant human HER2; test: SPR, Biacore T200, 25 C; variant captured on anti-human Fc, HER2 flowed;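 further: HER2 extracellular domain analyte run as duplicate dilutions over amine-coupled anti-Fc on a CM5 chip, rates from global sensorgram fitting with a 1:1 Langmuir model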

Binder	Ka, mut/Ka, WT (Recombinant human HER2 [1]) [fold]	ΔΔG (Recombinant human HER2 [2]) [kcal/mol]	Kd (Recombinant human HER2 [3]) [pM]	koff (Recombinant human HER2 [3]) [s⁻¹]	kon (Recombinant human HER2 [3]) [M⁻¹ s⁻¹]
Variant 14062 (antibody, human IgG1, kappa, OA (one-armed) format; clones 8789, 7919, 4372; also called v14062) heavy: EVQLVESGGGLVQPGGSLRLSCAASGFTFQDYTMDWVRQAPGKGLEWVADVNPNSGYSIYNQRFKGRFTLSVDRSKNTLYLQMNSLRAEDTAVYYCARNLGPWFYFDYWGQGTLVTVSSASTKGPSVFPLAPSSKSTSGGTAALGCLVKDYFPEPVTVSWNSGALTSGVHTFPAVLQSSGLYSLSSVVTVPSSSLGTQTYICNVNHKPSNTKVDKKVEPKSCDKTHTCPPCPAPELLGGPSVFLFPPKPKDTLMISRTPEVTCVVVDVSHEDPEVKFNWYVDGVEVHNAKTKPREEQYNSTYRVVSVLTVLHQDWLNGKEYKCKVSNKALPAPIEKTISKAKGQPREPQVYVYPPSRDELTKNQVSLTCLVKGFYPSDIAVEWESNGQPENNYKTTPPVLDSDGSFALVSKLTVDKSRWQQGNVFSCSVMHEALHNHYTQKSLSLSPG light: not shown not shown	26	-1.9	630	3.5e-05	56000
Variant 14060 (antibody, human IgG1, kappa, OA (one-armed) format; clones 8780, 8781, 4372; also called v14060) heavy: EVQLVESGGGLVQPGGSLRLSCAASGFTFQDYTMDWVRQAPGKGLEWVADVNPNSGGSIYNQRFKGRFTLSVDRSKNTLYLQMNSLRAEDTAVYYCARNLGPWFYFDYWGQGTLVTVSSASTKGPSVFPLAPSSKSTSGGTAALGCLVKDYFPEPVTVSWNSGALTSGVHTFPAVLQSSGLYSLSSVVTVPSSSLGTQTYICNVNHKPSNTKVDKKVEPKSCDKTHTCPPCPAPELLGGPSVFLFPPKPKDTLMISRTPEVTCVVVDVSHEDPEVKFNWYVDGVEVHNAKTKPREEQYNSTYRVVSVLTVLHQDWLNGKEYKCKVSNKALPAPIEKTISKAKGQPREPQVYVYPPSRDELTKNQVSLTCLVKGFYPSDIAVEWESNGQPENNYKTTPPVLDSDGSFALVSKLTVDKSRWQQGNVFSCSVMHEALHNHYTQKSLSLSPG light: not shown not shown	2	-0.3	9200	0.0013	140000
Variant 14058 (antibody, human IgG1, kappa, OA (one-armed) format; clones 8784, 7917, 4372; also called v14058) heavy: EVQLVESGGGLVQPGGSLRLSCAASGFTFQDYTMDWVRQAPGKGLEWVADVNPNSGGSIYNQRFKGRFTLSVDRSWNTLYLQMNSLRAEDTAVYYCARNLGPWFYFDYWGQGTLVTVSSASTKGPSVFPLAPSSKSTSGGTAALGCLVKDYFPEPVTVSWNSGALTSGVHTFPAVLQSSGLYSLSSVVTVPSSSLGTQTYICNVNHKPSNTKVDKKVEPKSCDKTHTCPPCPAPELLGGPSVFLFPPKPKDTLMISRTPEVTCVVVDVSHEDPEVKFNWYVDGVEVHNAKTKPREEQYNSTYRVVSVLTVLHQDWLNGKEYKCKVSNKALPAPIEKTISKAKGQPREPQVYVYPPSRDELTKNQVSLTCLVKGFYPSDIAVEWESNGQPENNYKTTPPVLDSDGSFALVSKLTVDKSRWQQGNVFSCSVMHEALHNHYTQKSLSLSPG light: not shown not shown	4	-0.9	3900	0.00092	240000
Variant 14051 (antibody, human IgG1, kappa, OA (one-armed) format; clones 7815, 8781, 4372; also called v14051) heavy: EVQLVESGGGLVQPGGSLRLSCAASGFTFQDYTMDWVRQAPGKGLEWVADVNPNSGGSIYNQRFKGRFTLSVDRSKNTLYLQMNSLRAEDTAVYYCARNLGPSFYFDYWGQGTLVTVSSASTKGPSVFPLAPSSKSTSGGTAALGCLVKDYFPEPVTVSWNSGALTSGVHTFPAVLQSSGLYSLSSVVTVPSSSLGTQTYICNVNHKPSNTKVDKKVEPKSCDKTHTCPPCPAPELLGGPSVFLFPPKPKDTLMISRTPEVTCVVVDVSHEDPEVKFNWYVDGVEVHNAKTKPREEQYNSTYRVVSVLTVLHQDWLNGKEYKCKVSNKALPAPIEKTISKAKGQPREPQVYVYPPSRDELTKNQVSLTCLVKGFYPSDIAVEWESNGQPENNYKTTPPVLDSDGSFALVSKLTVDKSRWQQGNVFSCSVMHEALHNHYTQKSLSLSPG light: not shown not shown	~62	-2.4	~310	~1.64e-05	53000
Variant 14057 (antibody, human IgG1, kappa, OA (one-armed) format; clones 8774, 8781, 4372; also called v14057) heavy: EVQLVESGGGLVQPGGSLRLSCAASGFTFTDYTMDWVRQAPGKGLEWVADVNPNSGGSIYNQRFKGRFTLSVDRSWNTLYLQMNSLRAEDTAVYYCARNLGPWFYFDYWGQGTLVTVSSASTKGPSVFPLAPSSKSTSGGTAALGCLVKDYFPEPVTVSWNSGALTSGVHTFPAVLQSSGLYSLSSVVTVPSSSLGTQTYICNVNHKPSNTKVDKKVEPKSCDKTHTCPPCPAPELLGGPSVFLFPPKPKDTLMISRTPEVTCVVVDVSHEDPEVKFNWYVDGVEVHNAKTKPREEQYNSTYRVVSVLTVLHQDWLNGKEYKCKVSNKALPAPIEKTISKAKGQPREPQVYVYPPSRDELTKNQVSLTCLVKGFYPSDIAVEWESNGQPENNYKTTPPVLDSDGSFALVSKLTVDKSRWQQGNVFSCSVMHEALHNHYTQKSLSLSPG light: not shown not shown	5	-0.9	3600	0.00045	120000

Binders with a lower Kd (Recombinant human HER2 [3]), results first:

Ka, mut/Ka, WT (Recombinant human HER2 [1]) [fold]	ΔΔG (Recombinant human HER2 [2]) [kcal/mol]	Kd (Recombinant human HER2 [3]) [pM]	koff (Recombinant human HER2 [3]) [s⁻¹]	kon (Recombinant human HER2 [3]) [M⁻¹ s⁻¹]	Binder
~103	-2.7	~190	~1.4e-05	77000	Variant 14049 (antibody, human IgG1, kappa, OA (one-armed) format; clones 8776, 7919, 4372; also called v14049) heavy: EVQLVESGGGLVQPGGSLRLSCAASGFTFYDYTMDWVRQAPGKGLEWVADVNPNSGGSIYNQRFKGRFTLSVDRSWNTLYLQMNSLRAEDTAVYYCARNLGPSFYFDYWGQGTLVTVSSASTKGPSVFPLAPSSKSTSGGTAALGCLVKDYFPEPVTVSWNSGALTSGVHTFPAVLQSSGLYSLSSVVTVPSSSLGTQTYICNVNHKPSNTKVDKKVEPKSCDKTHTCPPCPAPELLGGPSVFLFPPKPKDTLMISRTPEVTCVVVDVSHEDPEVKFNWYVDGVEVHNAKTKPREEQYNSTYRVVSVLTVLHQDWLNGKEYKCKVSNKALPAPIEKTISKAKGQPREPQVYVYPPSRDELTKNQVSLTCLVKGFYPSDIAVEWESNGQPENNYKTTPPVLDSDGSFALVSKLTVDKSRWQQGNVFSCSVMHEALHNHYTQKSLSLSPG light: not shown not shown
~148	-3	~110	~8.4e-06	76000	Variant 14056 (antibody, human IgG1, kappa, OA (one-armed) format; clones 8775, 8781, 4372; also called v14056) heavy: EVQLVESGGGLVQPGGSLRLSCAASGFTFQDYTMDWVRQAPGKGLEWVADVNPNSGGSIYNQRFKGRFTLSVDRSWNTLYLQMNSLRAEDTAVYYCARNLGPSFYFDYWGQGTLVTVSSASTKGPSVFPLAPSSKSTSGGTAALGCLVKDYFPEPVTVSWNSGALTSGVHTFPAVLQSSGLYSLSSVVTVPSSSLGTQTYICNVNHKPSNTKVDKKVEPKSCDKTHTCPPCPAPELLGGPSVFLFPPKPKDTLMISRTPEVTCVVVDVSHEDPEVKFNWYVDGVEVHNAKTKPREEQYNSTYRVVSVLTVLHQDWLNGKEYKCKVSNKALPAPIEKTISKAKGQPREPQVYVYPPSRDELTKNQVSLTCLVKGFYPSDIAVEWESNGQPENNYKTTPPVLDSDGSFALVSKLTVDKSRWQQGNVFSCSVMHEALHNHYTQKSLSLSPG light: not shown not shown
~188	-3.1	~100	~7.1e-06	70000	Variant 14047 (antibody, human IgG1, kappa, OA (one-armed) format; clones 8775, 7917, 4372; also called v14047) heavy: EVQLVESGGGLVQPGGSLRLSCAASGFTFQDYTMDWVRQAPGKGLEWVADVNPNSGGSIYNQRFKGRFTLSVDRSWNTLYLQMNSLRAEDTAVYYCARNLGPSFYFDYWGQGTLVTVSSASTKGPSVFPLAPSSKSTSGGTAALGCLVKDYFPEPVTVSWNSGALTSGVHTFPAVLQSSGLYSLSSVVTVPSSSLGTQTYICNVNHKPSNTKVDKKVEPKSCDKTHTCPPCPAPELLGGPSVFLFPPKPKDTLMISRTPEVTCVVVDVSHEDPEVKFNWYVDGVEVHNAKTKPREEQYNSTYRVVSVLTVLHQDWLNGKEYKCKVSNKALPAPIEKTISKAKGQPREPQVYVYPPSRDELTKNQVSLTCLVKGFYPSDIAVEWESNGQPENNYKTTPPVLDSDGSFALVSKLTVDKSRWQQGNVFSCSVMHEALHNHYTQKSLSLSPG light: not shown not shown
~212	-3.2	~91	~9.1e-06	100000	Variant 14046 (antibody, human IgG1, kappa, OA (one-armed) format; clones 7844, 8781, 4372; also called v14046) heavy: EVQLVESGGGLVQPGGSLRLSCAASGFTFTDYTMDWVRQAPGKGLEWVADVNPNSGGSIYNQRFKGRFTLSVDRSWNTLYLQMNSLRAEDTAVYYCARNLGPSFYFDYWGQGTLVTVSSASTKGPSVFPLAPSSKSTSGGTAALGCLVKDYFPEPVTVSWNSGALTSGVHTFPAVLQSSGLYSLSSVVTVPSSSLGTQTYICNVNHKPSNTKVDKKVEPKSCDKTHTCPPCPAPELLGGPSVFLFPPKPKDTLMISRTPEVTCVVVDVSHEDPEVKFNWYVDGVEVHNAKTKPREEQYNSTYRVVSVLTVLHQDWLNGKEYKCKVSNKALPAPIEKTISKAKGQPREPQVYVYPPSRDELTKNQVSLTCLVKGFYPSDIAVEWESNGQPENNYKTTPPVLDSDGSFALVSKLTVDKSRWQQGNVFSCSVMHEALHNHYTQKSLSLSPG light: not shown not shown
~229	-3.2	~84	~5.9e-06	71000	Variant 14045 (antibody, human IgG1, kappa, OA (one-armed) format; clones 8784, 1811, 4372; also called v14045) heavy: EVQLVESGGGLVQPGGSLRLSCAASGFTFQDYTMDWVRQAPGKGLEWVADVNPNSGGSIYNQRFKGRFTLSVDRSWNTLYLQMNSLRAEDTAVYYCARNLGPWFYFDYWGQGTLVTVSSASTKGPSVFPLAPSSKSTSGGTAALGCLVKDYFPEPVTVSWNSGALTSGVHTFPAVLQSSGLYSLSSVVTVPSSSLGTQTYICNVNHKPSNTKVDKKVEPKSCDKTHTCPPCPAPELLGGPSVFLFPPKPKDTLMISRTPEVTCVVVDVSHEDPEVKFNWYVDGVEVHNAKTKPREEQYNSTYRVVSVLTVLHQDWLNGKEYKCKVSNKALPAPIEKTISKAKGQPREPQVYVYPPSRDELTKNQVSLTCLVKGFYPSDIAVEWESNGQPENNYKTTPPVLDSDGSFALVSKLTVDKSRWQQGNVFSCSVMHEALHNHYTQKSLSLSPG light: not shown not shown
~269	-3.3	~61	~5.3e-06	88000	Variant 14059 (antibody, human IgG1, kappa, OA (one-armed) format; clones 8776, 8781, 4372; also called v14059) heavy: EVQLVESGGGLVQPGGSLRLSCAASGFTFYDYTMDWVRQAPGKGLEWVADVNPNSGGSIYNQRFKGRFTLSVDRSWNTLYLQMNSLRAEDTAVYYCARNLGPSFYFDYWGQGTLVTVSSASTKGPSVFPLAPSSKSTSGGTAALGCLVKDYFPEPVTVSWNSGALTSGVHTFPAVLQSSGLYSLSSVVTVPSSSLGTQTYICNVNHKPSNTKVDKKVEPKSCDKTHTCPPCPAPELLGGPSVFLFPPKPKDTLMISRTPEVTCVVVDVSHEDPEVKFNWYVDGVEVHNAKTKPREEQYNSTYRVVSVLTVLHQDWLNGKEYKCKVSNKALPAPIEKTISKAKGQPREPQVYVYPPSRDELTKNQVSLTCLVKGFYPSDIAVEWESNGQPENNYKTTPPVLDSDGSFALVSKLTVDKSRWQQGNVFSCSVMHEALHNHYTQKSLSLSPG light: not shown not shown
